Assay results as given in patent publication US20240181094A1, “[161Tb]-BASED RADIOPEPTIDES” (priority 2021, published 2024).
Read-outs that look alike come from different tables or passages of the source. Starred links: 1 amine or outer side, 2 acyl side, 3 side chain; linkers in the order of their positions; H or OH if unused. Positions of bridges follow the written chain, without caps; N, C: chain ends. Non-standard residues stand in square brackets, D forms with d. Residues, ends and D or L forms follow the SMILES beside them. *: point of attachment. DOTA = O=C(O)CN1CCN(CC(=O)O)CCN(CC(=O)*)CCN(CC(=O)O)CC1; dPhe(4-NHCONH2) = NC(=O)Nc1ccc(C[C@@H](N)C(=O)O)cc1; X1 = NC(=O)Nc1ccc(CC(N[*:1])C(=O)[*:2])cc1; Phe(4-Cl) = N[CH](Cc1ccc(Cl)cc1)C(=O)O

Columns and labels:
AR42J tumor-bearing mice = conditions: 0.2 nmol/mouse
Description: Five-week-old female, athymic nude mice (CD-1 Foxn-1/nu) were obtained from Charles River Laboratories (Sulzfeld, Germany). Mice were subcutaneously inoculated with AR42 J tumor cells (5×10^6 cells in 100 μl PBS) for SPECT/CT imaging, biodistribution and therapy studies. The SPECT/CT and biodistribution studies were performed 10-14 days after tumor cell inoculation when the tumor size reached a volume of ˜250 mm^3.
The mice were sacrificed at 0.5 h, 2 h, 4 h, 24 h and 48 h p.i, selected tissues and organs were collected, weighed, and the accumulated activity was counted using a γ-counter (Perkin Elmer). The decay-corrected data were listed as % IA/g. The data were analyzed for significance using a two-way ANOVA with Tukey's multiple comparison post-tests. A p-value of <0.05 was considered statistically significant.

[1] = mouse, in vivo
Description: Early side effects were assessed based on the RBW of each mouse which was monitored every second day. When an endpoint was reached or at the end of the study (after 49 days), relevant organs and tissues were collected, weighed and put into relation to the brain mass and body weight of the respective mouse. This allowed comparison of organ-to-brain and organ-to-body mass weight ratios. In addition, blood plasma parameters from blood collected immediately after euthanasia were measured.
RBW, organ mass and mass ratios at the endpoint. The RBW was monitored every second day. Mice were euthanized when a predefined endpoint criterion was reached or when the study was terminated at Day 49. RBWs, organ masses, organ mass ratios (kidney-to-brain, liver-to-brain and spleen-to-brain) and organ mass to body weight ratios (kidney-to-body mass, liver-to-body mass and spleen-to-body mass) were analyzed for significance using a one-way ANOVA test with a Tukey's multiple comparisons post-test. A p-value of <0.05 was considered as statistically significant.
Blood plasma chemistry: Immediately before euthanasia of the mice that reached the endpoint, blood was sampled from the retrobulbar vein. The values of creatinine (CRE), blood urea nitrogen (BUN), alkaline phosphatase (ALP), total bilirubin (TBIL) and albumin (ALB) were determined in the plasma after centrifugation of the blood using a dry chemistry analyzer (DRI-CHEM 4000 i, FUJIFILM, Japan). The average blood plasma parameters of each group were analyzed for significance using a one-way ANOVA test with a Tukey's multiple comparisons post-test. A p-value of <0.05 was considered as statistically significant.

in vivo = conditions: female, athymic nude CD-1 Foxn-1/nu, mouse, iv, 1 nmol/mouse, total radioactivity

Compound: CC(O)C1NC(=O)C(CCCCN)NC(=O)C(Cc2ccc(NC(N)=O)cc2)NC(=O)C(Cc2ccc(O)cc2)NC(=O)C(NC(=O)C(Cc2ccc(Cl)cc2)NC(=O)CN2CCN(CC(=O)O)CCN(CC(=O)O)CCN(CC(=O)O)CC2)CSSCC(C(=O)NC(Cc2ccc(O)cc2)C(N)=O)NC1=O (centres unmarked) [metal not drawn] ({DOTA}-[Phe(4-Cl)]CY[X1]KTCY-NH2; disulfide 2-7; configuration not given here)
- Blood uptake (AR42J tumor-bearing mice; 0.5 h p.i.): 1.3 ± 0.2 % IA/g
- Blood uptake (AR42J tumor-bearing mice; 2 h p.i.): ≤0.10 % IA/g
- Muscle uptake (AR42J tumor-bearing mice; 2 h p.i.): ≤0.10 % IA/g
- Spleen uptake (AR42J tumor-bearing mice; 2 h p.i.): 0.41 ± 0.08 % IA/g
- Blood uptake (AR42J tumor-bearing mice; 4 h p.i.): ≤0.10 % IA/g
- Heart uptake (AR42J tumor-bearing mice; 4 h p.i.): ≤0.10 % IA/g
- Kidneys uptake (AR42J tumor-bearing mice; 4 h p.i.): 9.0 ± 1.2 % IA/g
- Muscle uptake (AR42J tumor-bearing mice; 4 h p.i.): ≤0.10 % IA/g
- Blood uptake (AR42J tumor-bearing mice; 24 h p.i.): ≤0.10 % IA/g
- Heart uptake (AR42J tumor-bearing mice; 24 h p.i.): ≤0.10 % IA/g
- Muscle uptake (AR42J tumor-bearing mice; 24 h p.i.): ≤0.10 % IA/g
- Blood uptake (AR42J tumor-bearing mice; 48 h p.i.): ≤0.10 % IA/g
- Heart uptake (AR42J tumor-bearing mice; 48 h p.i.): ≤0.10 % IA/g
- Muscle uptake (AR42J tumor-bearing mice; 48 h p.i.): ≤0.10 % IA/g
- ALB (albumin), plasma [1]: 22 ± 1 g/L
- ALP (alkaline phosphatase), plasma [1]: 65 ± 15 U/L
- Organ mass Brain [1]: 465 ± 30 mg
- Organ mass Kidneys [1]: 332 ± 46 mg
- Organ mass Liver [1]: 1275 ± 254 mg
- Organ mass Spleen [1]: 85 ± 27 mg

Compound: C[C@@H](O)[C@@H]1NC(=O)[C@H](CCCCN)NC(=O)[C@@H](Cc2ccc(NC(N)=O)cc2)NC(=O)[C@H](Cc2ccc(O)cc2)NC(=O)[C@H](NC(=O)[C@H](Cc2ccc(Cl)cc2)NC(=O)CN2CCN(CC(=O)O)CCN(CC(=O)O)CCN(CC(=O)O)CC2)CSSC[C@@H](C(=O)N[C@H](Cc2ccc(O)cc2)C(N)=O)NC1=O [metal not drawn] ({DOTA}-[Phe(4-Cl)][dC]Y[dPhe(4-NHCONH2)]KTC[dY]-NH2; disulfide 2-7)
- tissue uptake at 2 h (in vivo): ≤ 0.1 %ID/g
- tissue uptake at 24 h (in vivo): ≤ 0.1 %ID/g
- ALB (albumin), plasma [1]: 23 ± 1 g/L
- ALP (alkaline phosphatase), plasma [1]: 66 ± 5 U/L
- CRE (creatinine), plasma [1]: 19 µmol/L
- Organ mass Brain [1]: 471 ± 30 mg
- Organ mass Kidneys [1]: 336 ± 13 mg
- Organ mass Liver [1]: 1254 ± 106 mg
- Organ mass Spleen [1]: 92 ± 17 mg
